In patent US20230248844A1, “C[…] ADC OR AN AOC COMPRISING A VHH, AND A SAPONIN OR A LIGAND-SAPONIN CONJUGATE” (SAPREME TECHNOLOGIES B.V., priority 2020, published 2023):

Target: EGFR (human) (UniProt P00533)
Assay: cell-based or functional assay

cetuximab-saporin (antibody) showed a cell killing (MTS) IC50, titrated alone, MDA-MB-468 cells (EGFR++) of 300 pM.
